± gives the standard deviation of the averaged measurements.
Tested on: ATP
Test: switch fluorescence ratio, 500 uM ATP over buffer (Cy3 cluster intensity, sum of 5 cycles each) (fold (ratio)); higher = stronger signal-on switching upon ATP binding; sequences stand for … in TCGTCGGCAGCGTCAGATGTGTATAAGAGACAGTTTTTTTTTTTTTTTTTTTTTTTTT…TC
Settings: aptamer strand: ATP DNA aptamer (quencher-CACCTGGGGGAGTATTGCGGAGGAAGG + anchor), 100 nM annealed; ATP concentration: 500 uM
How it was run: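 Cy3-labelled switching-strand clusters on a modified Illumina MiSeq flow-cell were annealed to 100 nM quencher-labelled ATP aptamer, imaged in selection buffer, then imaged after 15 min with 500 uM ATP at 22 °C. Five buffer/ATP cycles ran, with NaOH stripping and re-annealing between them. The fluorescence ratio is summed target-cycle over summed buffer-cycle Cy3 intensity per cluster, averaged per switch-domain sequence. Clusters outside 100-1000 RFU were excluded.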
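Note: ATP exposure 15 min at 22 °C before imaging.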

Sequence	switch fluorescence ratio
TAAATTTTAT	1.012 ± 0.0058
TTTTTCAGTG	0.991 ± 0.039
GATGCGACCA	1.04 ± 0.065
ATGGGTTGAG	1.01 ± 0.0072
TTTGAGAAGC	0.992 ± 0.026
ACCTGAATAG	1.14 ± 0.11
ATGTGCTGGT	0.991 ± 0.021
TGAGGAGGTT	0.981 ± 0.072
AATTAGTGCT	0.9938 ± 0.0069
AGTGTTGATG	0.975 ± 0.051
CTAGGCTTTT	1.02 ± 0.079
TTTGAAGACA	0.991 ± 0.028
TATCCGAGGT	1.16 ± 0.26
TCCTAGGTCT	1.009 ± 0.0029
AAAGTGTGCC	0.962 ± 0.013
TCGGGGGTGC	1.04 ± 0.033
TTGTTTAAGT	1.001 ± 0.0081
TCCGCGGGTT	1.14 ± 0.2
AAAATATGCC	1.02 ± 0.026
AAATGGTTCC	1.72 ± 1
TGGGAAGGCG	0.983 ± 0.012
CGCGGGGCGG	1.02 ± 0.029
TAAAAGAACT	1.03 ± 0.038

Sequence	switch fluorescence ratio
CCTGGAGGTT	0.964 ± 0.022
GTGGGACAGC	1.02 ± 0.052
GTCCAAATGG	0.999 ± 0.022
TTGGTGTGTT	1.01 ± 0.013
TTTTAAGTGG	0.991 ± 0.023
AATCTTGGGT	0.972 ± 0.012
CGGTTTTGTG	0.962 ± 0.031
CGCATGATAG	1.24 ± 0.036
TTCCCGCGTA	1.19 ± 0.13
CGGGAGGGGT	1.06 ± 0.14
CAGGCGACGG	1.01 ± 0.033
TGTTTCTGGT	0.969 ± 0.038
TGTTGATCAG	0.982 ± 0.03
CGTCCACGGA	0.9936 ± 0.0096
TTACGGTCTA	1.03 ± 0.013
GGTTTGGCTG	0.993 ± 0.038
TCGTTAGAGG	0.9718 ± 0.0073
CGGGGATCCT	1.05 ± 0.032
GAGCTCAAGT	0.991 ± 0.062
ATAAATTGCA	0.998 ± 0.02
TGACGGGCGG	1 ± 0.015
TCGGGAATCG	0.983 ± 0.027
GCGTTTAATT	1.02 ± 0.03

Sequence	switch fluorescence ratio
AGGGGTGGGA	1.01 ± 0.02
TTCGGGCGAA	1 ± 0.029
AAACGTGAGT	0.985 ± 0.01
CGCAGGATGG	1.05 ± 0.05
AGTAGGGGAA	0.995 ± 0.035
AACGGTAGGT	1.01 ± 0.018
CGGGGCTCCG	0.967 ± 0.023
GTACTTTCGG	0.98 ± 0.015
CTCGTTGCTT	1.03 ± 0.037
GAATTGGGTA	0.957 ± 0.014
AAGCAGGGGT	0.982 ± 0.074
TGAGTCCTCG	0.995 ± 0.064
TAGCAGGGTC	1.089 ± 0.0072
ACCCGGGCTT	0.995 ± 0.026
AGGGAAGCT	1.05 ± 0.015
GGTGTTATGT	1.01 ± 0.016
GTGGAAGGGC	1.03 ± 0.079
CTCCTCTACC	1.64 ± 0.048
CCAGACGGGC	1.07 ± 0.059
TAAGAGGGTC	0.999 ± 0.041
TCCGGGGGTG	1.09 ± 0.13
CTTTGCACGA	1.1 ± 0.0077
TCGGTATTTG	0.967 ± 0.037

Sequence	switch fluorescence ratio
AAGTGGGACC	1.02 ± 0.025
ACGTCTTTGG	1.02 ± 0.043
ATATCATGTT	0.995 ± 0.036
CGGCATGGTG	0.98 ± 0.02
TCTTGAATAA	0.9856 ± 0.0072
TCATGTTGGA	0.977 ± 0.02
GGCTAGAAAA	1 ± 0.0099
ATGTTCGTTA	1.0123 ± 0.00085
GTACTGTAGG	1 ± 0.026
GCTTTATCGG	0.965 ± 0.025
ATGGCGATTG	0.996 ± 0.0078
AGAGGCTTAC	1.04 ± 0.051
TTTAATATGA	0.997 ± 0.035
TTTGGGGCAT	1.032 ± 0.0027
ATAGATAGGG	0.969 ± 0.021
ATTTTGAGAC	0.995 ± 0.026
CAGGTTTAAA	0.992 ± 0.034
GTGGGCGGGA	1.07 ± 0.14
TTAAACGGGA	1.03 ± 0.024
ACGCGACATT	1.12 ± 0.039
ATTCATCATT	1.003 ± 0.0043
CGTGCTCAGG	1.162 ± 0.011
TTGGCAACTT	1.03 ± 0.03

Sequence	switch fluorescence ratio
TTCGGGGTCC	0.99 ± 0.028
CTTTTCTGTT	0.9861 ± 0.0085
TATGCATTAA	1.01 ± 0.021
GAGGTACTGG	1.018 ± 0.008
TTCTCAGAGG	1.01 ± 0.029
TGGTCGTCTT	1.05 ± 0.035
TAACTCAAGA	0.9979 ± 0.0066
GATCTGCCTG	0.985 ± 0.029
ACTTGGTCCA	0.987 ± 0.016
GGACATATTA	1 ± 0.028
CAATTTCCAG	1.02 ± 0.026
TTGGTGTTGG	1.01 ± 0.044
ATTTTGGGGA	1.005 ± 0.01
TGTTTTTGCT	0.969 ± 0.033
ACGGAAGGTT	1.03 ± 0.043
CAATCTAAAT	0.969 ± 0.027
TATCCGGAAT	1.79 ± 0.76
TAGCTATGTG	0.982 ± 0.038
TGAGTTCAAC	1.04 ± 0.086
GCATCGGGGT	1 ± 0.032
GCCGCAGGGA	2.3 ± 1.9
TGGATGAAGA	1.025 ± 0.0078
GAGTAAAATT	1.13 ± 0.18

Sequence	switch fluorescence ratio
CCTTCACCTT	1.077 ± 0.0017
GATGTATGTT	0.978 ± 0.037
ATAATTTTAT	1.08 ± 0.13
TTTTGGCAAC	1.04 ± 0.079
AGGTAGTTC	0.96 ± 0.1
GGGAGAGAGT	0.999 ± 0.029
GAGAAGCACG	0.978 ± 0.055
CCTTAAGACT	1.07 ± 0.028
CGATGACATG	0.9877 ± 0.0082
AGGCGGACGT	1 ± 0.0089
TTGGGCATGG	1.02 ± 0.048
GCGGCTGAAA	1 ± 0.022
GATGTGCCAG	0.969 ± 0.017
TTGGGAACAT	1 ± 0.016
GCAGGAGCCT	1.01 ± 0.011
TATAAATTAG	0.972 ± 0.026
GGGAGGGAGT	1.01 ± 0.024
GAGGTTGTGG	0.973 ± 0.06
TGTACAAAAT	0.986 ± 0.047
CGACTCGAAA	1.02 ± 0.016
AAGAAGACGG	1.23 ± 0.35
TGCTGTTCTC	0.995 ± 0.018
AGATGTTGGG	0.992 ± 0.07

Sequence	switch fluorescence ratio
TTAGCCGCGG	0.997 ± 0.016
ATGTCAGGGT	0.9732 ± 0.0086
TTTTGGGCCC	1.04 ± 0.076
TTTAGCTGCC	1.16 ± 0.064
GGAATCTGAT	0.996 ± 0.12
ACGGGGTAAA	1.004 ± 0.009
GCGGGCGGCG	0.974 ± 0.03
GATACGGTTA	1.03 ± 0.011
TCCTATACTA	1.035 ± 0.0094
ATAGGGAGGT	1.01 ± 0.032
GAAGGGCATA	1.02 ± 0.019
ATGTTGTTTG	0.979 ± 0.014
CCGGCTGGGT	0.9584 ± 0.0069
TTGTGAATTT	1.28 ± 0.43
CTTCTTCGGT	1 ± 0.015
TGTTGCGGGG	0.995 ± 0.038
ATGTGTATCG	0.969 ± 0.039
CGTTGTGGGA	1.01 ± 0.038
TGGGCTATGC	0.986 ± 0.059

— the supplement of paper PMC10126150
